Test results as given in patent publication US20240218011A1 (FIREFLY BIO, published 2024).

Biological target: human LPAM1 (human, UniProt P26010 20-798)
Experiment: cell-based or functional assay

Chain of human LPAM1 (P26010 20-798): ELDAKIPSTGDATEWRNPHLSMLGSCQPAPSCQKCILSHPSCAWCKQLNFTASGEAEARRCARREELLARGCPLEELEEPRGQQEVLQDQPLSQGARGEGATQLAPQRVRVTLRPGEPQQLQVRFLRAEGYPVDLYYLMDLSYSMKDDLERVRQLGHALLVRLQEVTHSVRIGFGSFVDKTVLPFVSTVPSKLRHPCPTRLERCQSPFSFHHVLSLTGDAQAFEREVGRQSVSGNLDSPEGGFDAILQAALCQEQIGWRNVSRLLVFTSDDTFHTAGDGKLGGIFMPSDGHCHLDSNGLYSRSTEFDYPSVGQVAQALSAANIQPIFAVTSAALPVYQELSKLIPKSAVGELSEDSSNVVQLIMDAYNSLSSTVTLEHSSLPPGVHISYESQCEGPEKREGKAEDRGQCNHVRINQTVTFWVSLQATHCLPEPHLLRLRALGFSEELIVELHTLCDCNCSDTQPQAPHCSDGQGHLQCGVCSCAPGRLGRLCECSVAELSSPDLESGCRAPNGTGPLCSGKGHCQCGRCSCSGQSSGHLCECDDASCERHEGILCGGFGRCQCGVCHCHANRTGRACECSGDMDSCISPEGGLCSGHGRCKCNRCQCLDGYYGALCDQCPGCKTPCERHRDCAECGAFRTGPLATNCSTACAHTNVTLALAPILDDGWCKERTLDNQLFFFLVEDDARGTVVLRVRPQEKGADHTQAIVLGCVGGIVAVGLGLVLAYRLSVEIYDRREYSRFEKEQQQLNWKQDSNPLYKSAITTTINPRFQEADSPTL

B1: Anti-LPAM-1-Linker 1-Bud (vedolizumab conjugated to GR agonist budesonide with Linker 1) (antibody, human IgG1, kappa, V domains shown)
VH: QVQLVQSGAEVKKPGASVKVSCKGSGYTFTSYWMHWVRQAPGQRLEWIGEIDPSESNTNYNQKFKGRVTLTVDISASTAYMELSSLRSEDTAVYYCARGGYDGWDYAIDYWGQGTLVTVSS
VL: DVVMTQSPLSLPVTPGEPASISCRSSQSLAKSYGNTYLSWYLQKPGQSPQLLIYGISNRFSGVPDRFSGSGSGTDFTLKISRVEAEDVGVYYCLQGTHQPYTFGQGTKVEIKR
modifications: budesonide attached through Linker 1; residues and chain not stated
  Fold induction Anti-LPAM1 conjugate at 0.0064 nM; luciferase reporter: 1 fold
  Fold induction Anti-LPAM1 conjugate at 0.032 nM; luciferase reporter: 1 fold
  Fold induction Anti-LPAM1 conjugate at 0.16 nM; luciferase reporter: 20 fold
  Fold induction Anti-LPAM1 conjugate at 0.8 nM; luciferase reporter: 121 fold
  Fold induction Anti-LPAM1 conjugate at 4 nM; luciferase reporter: 147 fold
  Fold induction Anti-LPAM1 conjugate at 20 nM; luciferase reporter: 177 fold
  Fold induction Anti-LPAM1 conjugate at 100 nM; luciferase reporter: 240 fold
  Fold induction Anti-LPAM1 conjugate at 500 nM; luciferase reporter: 361 fold
